Data reported in WO2014161570A1.
Read-outs that look alike come from different tables or passages of the source. Blank lines part the entries; values can stand above or below the molecule they belong to.

Key:
Test in all cases: ELISA, IL-17A coated on plate, relative binding (Table 6a)
[1] = molecular target: T1, Human IL-17A (human) (UniProt Q16552)
T1 sequence: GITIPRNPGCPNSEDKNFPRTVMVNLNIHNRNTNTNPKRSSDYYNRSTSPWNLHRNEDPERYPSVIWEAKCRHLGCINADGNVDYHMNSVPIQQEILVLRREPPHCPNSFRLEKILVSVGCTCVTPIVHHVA

[2] = molecular target: Cynomolgous IL-17A (cynomolgous)
[3] = molecular target: T1, Human IL-17A (human); remark: listed apart in the source

Relative binding to human IL-17A in % [1]: 122%
Relative binding to cynomolgous IL-17A in % [2]: 124%
Molecule: eBio64CAP17 (antibody)

Relative binding to human IL-17A in % [3]: 127%
B1: <IL17> 9C6-2B6 (mouse clone) (antibody, V domains shown)
VH: QVQLKESGPGLVAPSQSLSITCTVSGFSLDSYGVHWVRQPPGKGLEWLVVIWSDGTTTYNSALKSRLSITKDNSKSQVFLKMNSLQTDDTAIYYCARDTHYRLYYYAMDYWGQGTSVTVSS
VL: DVVMTQTPLSLPVSLGDQASISCRSSQSLVHSNGDTYFHWYLQKPGQSPKLLIYKVSNRFSGVPDRFSGSGSGTDFTLKINRVEAEDLGVYFCSQTTHAPFTFGSGTKLEIK
